Assay results as given in IntAct's records for PubMed 19696784.

B1: Microtubule protein alp7 (Schizosaccharomyces pombe (strain ATCC 38366 / 972)), Q9URY2 (parent)
chain: MSDIVSSSTDYSRRSPSSSSIGTNETDHTGFHEKRQGASSESLIPPAQRSSEESMPAPKLFPKLTSKPNPQLNLKDTLNKRVSDRLQALELNKSFDFSGTPRPMHPISHPLSQHKTPEFKHRKRNVESILTPKNPSLFSSSNAASQRGSLNTAPSNFAYSHSSSLQTSASSRPPVLSNGSFPRQTNTAPLNPPVHLKDNIRNSATPSTSQADIPTQYPINSTQKQQAKYEAEIEGYKAKLAGTYHEISVLQNTIVNVSGQLIAVNDQLQQLRSGKASTSPSTKDTNMRLVEGHNEETLALQRGKYTQEEVDKLIQERMEKVAEDLHAQYSAKHTQKINAFKANYARKYEATIQELQNQIGTAPNAPKISNSNWEEERRALKADNQTLQKQLEKAIQERQDMSDFLNNFKADMAKSDKLLMQQQSQQTGDLETLRLQLQALQEELRVEREERQQLIQMSEDLVIAMDQLNLEQKS
partner: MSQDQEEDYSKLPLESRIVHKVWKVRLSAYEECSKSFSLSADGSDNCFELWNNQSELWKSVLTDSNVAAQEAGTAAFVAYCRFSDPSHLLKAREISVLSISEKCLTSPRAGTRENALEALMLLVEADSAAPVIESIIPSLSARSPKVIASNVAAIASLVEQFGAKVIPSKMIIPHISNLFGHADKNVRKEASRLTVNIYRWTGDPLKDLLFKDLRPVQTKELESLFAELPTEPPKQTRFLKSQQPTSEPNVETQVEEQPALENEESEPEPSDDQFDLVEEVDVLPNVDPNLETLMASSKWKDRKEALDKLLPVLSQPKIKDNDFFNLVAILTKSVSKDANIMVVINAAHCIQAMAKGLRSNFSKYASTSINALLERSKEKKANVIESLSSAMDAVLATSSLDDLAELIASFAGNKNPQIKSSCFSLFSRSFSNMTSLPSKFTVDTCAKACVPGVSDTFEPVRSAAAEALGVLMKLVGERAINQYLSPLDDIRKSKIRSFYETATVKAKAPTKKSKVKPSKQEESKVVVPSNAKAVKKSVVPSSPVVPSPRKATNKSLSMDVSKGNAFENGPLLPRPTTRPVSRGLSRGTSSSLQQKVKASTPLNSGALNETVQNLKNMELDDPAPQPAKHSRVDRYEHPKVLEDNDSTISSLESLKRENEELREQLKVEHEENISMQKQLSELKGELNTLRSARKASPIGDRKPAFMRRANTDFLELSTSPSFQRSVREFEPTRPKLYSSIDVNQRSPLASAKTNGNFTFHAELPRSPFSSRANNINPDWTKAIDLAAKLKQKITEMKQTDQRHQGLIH

Variants of: B1
Details: with alp14_schpo alp14, O94534

effect of a mutation on the interaction	Variant
disrupting interaction	MSDIVSSSTDYSRRSPSSSSIGTNETDHTGFHEKRQGASSESLIPPAQRSSEESMPAPKLFPKLTSKPNPQLNLKDTLNKRVSDRLQALELNKSFDFSGTPRPMHPISHPLSQHKTPEFKHRKRNVESILTPKNPSLFSSSNAASQRGSLNTAPSNFAYSHSSSLQTSASSRPPVLSNGSFPRQTNTAPLNPPVHLKDNIRNSATPSTSQADIPTQYPINSTQKQQAKYEAEIEGYKAKLAGTYHEISVLQNTIVNVSGQLIAVNDQLQQLRSGKASTSPSTKDTNMRLVEGHNEETLALQRGKYTQEEVDKLIQERMEKVAEDLHAQYSAKHTQKINAFKANYARKYEATIQELQNQIGTAPNAPKISNSNWEEERRALKADNQTLQKQLEKAIQERQDMSDFLNNFKADMAKSDKLLMQQQSQQTGDLETLRLQLQALQEELRVEREERQQLIQMSEDAVIAMDQLNLEQKS [L461A]
